Patent US11767343B2, “Peptide probe for recognition of G-quadruplex and use thereof in detection of G-quadruplex in cell” (Changzhi Medical College, priority 2020, dated 2023)
Where two headings read alike, the source gives them in different places.

Key:
[1] = system: DNA of G4 (GGGT)4; experiment: Non-denaturing polyacrylamide gel electrophoresis of G4 DNA binding to proteins; details: for binding to G4 DNAs (new slower band): protein:DNA 2:1 and 6:1, 100 nM G4 DNA, gel with 75 mM KCl
Procedure: After the culture was incubated until OD reach 0.5, the culture was induced with 0.8 mM IPTG and kept for 4 h at 37° C., followed by protein extraction and purification to obtain the proteins monomer, G4P, triplex, and tetrad. The protein extraction was performed by using Capturem™ His-Tagged Purification Miniprep Kit (TAKARA).
The obtained proteins were mixed with the DNA of G4 at a molar concentration ratio of 2:1 and 6:1, respectively, where the DNA of G4 comprises a sequence of (GGGT)4 (SEQ ID NO: 74), with a concentration of 100 nM. The G4 DNAs binding to the proteins were electrophoresed in a non-denaturing polyacrylamide gel containing 75 mM KCl. […] The G4 DNAs moved slower after binding to the proteins, thereby yielding a new band.

[2] = system: parallel and nonparallel G4s; experiment: ELISA comparison of G4 binding affinity between G4P and monomeric RHAU23; details: FIG. 3
Procedure: (§1) The annealed oligonucleotides were immobilized on a streptavidin-coated plate (Sigma-Aldrich), followed by incubating with G4P or RHAU23 at the indicated concentrations. Detection of bound proteins used an anti-FLAG Mouse Monoclonal Antibody (Transgen Biotech, China), an HRP Conjugated Goat Anti-Mouse IgG (H+L) secondary antibody (Transgen Biotech, China), and a TMB ELISA Substrate (Transgen Biotech, China) according to the manufacturer's instructions. Absorbance was measured at 450 nm on a Multi-Plate Reader (Biotek, USA). Dissociation constants (Kd) were obtained from the binding curves. The standard error of mean values was calculated from three replicates.
A comparison of G4 binding affinity between G4P and a monomeric RHAU23 was further performed. A G4P comprising only one G4-binding domain was termed monomeric RHAU23.

[3] = molecular target: 2G DNA + 2G RNA; experiment: ELISA binding of G4P to immobilized biotinylated oligonucleotide; details: 2/2 DNA/RNA Hybrid G4, Parallel, read-out: Kd (nM) ± SD
Procedure: as §1

[4] = molecular target: 3G DNA + 1G RNA; experiment: as above; details: 3/1 DNA/RNA Hybrid G4, Parallel, read-out: Kd (nM) ± SD
Procedure: as §1

[5] = molecular target: ABTB2; experiment: as above; details: G4, GVBQ, read-out: Kd (nM) ± SD
Procedure: as §1

[6] = molecular target: Bcl2; experiment: as above; details: G4, Mixed parallel and antiparallel, read-out: Kd (nM) ± SD
Procedure: as §1

[7] = molecular target: C20orf24; experiment: as above; details: G4, Mixed parallel and antiparallel, read-out: Kd (nM) ± SD
Procedure: as §1

[8] = molecular target: C9orf72; experiment: as above; details: G4, Antiparallel, read-out: Kd (nM) ± SD
Procedure: as §1

[9] = molecular target: CSTB; experiment: as above; details: G4, Parallel, read-out: Kd (nM) ± SD
Procedure: as §1

[10] = molecular target: DRD3; experiment: as above; details: G4, Antiparallel, read-out: Kd (nM) ± SD
Procedure: as §1

[11] = molecular target: HRAS1; experiment: as above; details: G4, Antiparallel, read-out: Kd (nM) ± SD
Procedure: as §1

[12] = molecular target: HT; experiment: as above; details: G4, Mixed parallel and antiparallel, read-out: Kd (nM) ± SD
Procedure: as §1

[13] = molecular target: MYOG; experiment: as above; details: G4, GVBQ, read-out: Kd (nM) ± SD
Procedure: as §1

[14] = molecular target: NRAS RNA; experiment: as above; details: G4, read-out: Kd (nM) ± SD
Procedure: as §1

[15] = molecular target: SPB1; experiment: as above; details: G4, Antiparallel, read-out: Kd (nM) ± SD
Procedure: as §1

[16] = molecular target: T2B-1; experiment: as above; details: G4, Bulge, Parallel, read-out: Kd (nM) ± SD
Procedure: as §1

[17] = molecular target: TBA; experiment: as above; details: G4, Antiparallel, read-out: Kd (nM) ± SD
Procedure: as §1

[18] = molecular target: TERRA3G; experiment: as above; details: intermolecular G4, Parallel, read-out: Kd (nM) ± SD
Procedure: as §1

[19] = molecular target: TERRA; experiment: as above; details: G4, Parallel, read-out: Kd (nM) ± SD
Procedure: as §1

[20] = molecular target: c-MYC; experiment: as above; details: G4, Parallel, read-out: Kd (nM) ± SD
Procedure: as §1

[21] = molecular target: hTel-3G; experiment: as above; details: intermolecular G4, Mixed parallel and antiparallel, read-out: Kd (nM) ± SD
Procedure: as §1

[22] = molecular target: hTel; experiment: as above; details: G4, Mixed parallel and antiparallel, read-out: Kd (nM) ± SD
Procedure: as §1

[23] = molecular target: G4s; experiment: ELISA binding, summary over the 21 G4s
Procedure: as §1
(§2) Therefore, the following were searched for PQSs of the three well-characterized non-canonical G4s, i.e. G4s with one loop of 8-15 nucleotides (4GL15), G-vacancy-bearing G4s (GVBQ), G4 with a bulge (Bulge), respectively. The G4P had no binding to the non-G4 DNAs or RNAs, including single-stranded DNA (ssDNA), RNA hairpin, DNA: RNA heteroduplex, and i-motif.

[24] = system: non-G4 DNAs or RNAs; experiment: ELISA binding, summary over non-G4 controls; details: ssDNA, RNA hairpin, DNA: RNA heteroduplex, i-motif
Procedure: as §1, §2

B1: triplex: Protein comprising three binding domains RHAU23; amino acid sequence SEQ ID NO: 6 (protein)
chain: MGSSHHHHHHSSGLVPRGSHMHPGHLKGREIGMWYAKKQGQKNKGTGSGAGTGSGAGTGSGAHPGHLKGREIGMWYAKKQGQKNKGTGSGAGTGSGAGTGSGAHPGHLKGREIGMWYAKKQGQKNKGTGSGADYKDHDGDYKDHDIDYKDDDDK
modifications: Fully synthetic
[1]
  binding to G4 DNAs (new slower band): binding ability

B2: tetrad: Protein comprising four binding domains RHAU23; amino acid sequence SEQ ID NO: 7 (protein)
chain: MGSSHHHHHHSSGLVPRGSHMHPGHLKGREIGMWYAKKQGQKNKGTGSGAGTGSGAGTGSGAHPGHLKGREIGMWYAKKQGQKNKGTGSGAGTGSGAGTGSGAHPGHLKGREIGMWYAKKQGQKNKGTGSGAGTGSGAGTGSGAHPGHLKGREIGMWYAKKQGQKNKGTGSGADYKDHDGDYKDHDIDYKDDDDK
modifications: Fully synthetic
[1]
  binding to G4 DNAs (new slower band): binding ability

B3: RHAU23: G4P comprising only one G4-binding domain RHAU23; amino acid sequence SEQ ID NO: 5 (protein)
chain: MGSSHHHHHHSSGLVPRGSHMHPGHLKGREIGMWYAKKQGQKNKGTGSGADYKDHDGDYKDHDIDYKDDDDK
modifications: Fully synthetic
[2]
  discrimination between parallel and nonparallel G4s in binding: only binds parallel, but not nonparallel G4s

B4: G4P: Polypeptide probe: two RHAU23 G4-binding domains, linker of three GTGSGA hexapeptides, C-terminal 3xFLAG tag, N-terminal HIS tag; SEQ ID NO: 4 (protein)
chain: MGSSHHHHHHSSGLVPRGSHMHPGHLKGREIGMWYAKKQGQKNKGTGSGAGTGSGAGTGSGAHPGHLKGREIGMWYAKKQGQKNKGTGSGADYKDHDGDYKDHDIDYKDDDDK
modifications: Fully synthetic
[3]
  Kd: 0.42 ± 0.06 nM
[4]
  Kd: 0.59 ± 0.1 nM
[5]
  Kd: 0.59 ± 0.04 nM
[6]
  Kd: 0.9 ± 0.08 nM
[7]
  Kd: 0.35 ± 0.03 nM
[8]
  Kd: 1.89 ± 0.21 nM
[9]
  Kd: 0.37 ± 0.03 nM
[10]
  Kd: 0.31 ± 0.03 nM
[11]
  Kd: 3.11 ± 0.25 nM
[12]
  Kd: 0.79 ± 0.05 nM
[13]
  Kd: 0.82 ± 0.05 nM
[14]
  Kd: 0.48 ± 0.03 nM
[15]
  Kd: 2.83 ± 0.15 nM
[16]
  Kd: 0.34 ± 0.02 nM
[17]
  Kd: 1.71 ± 0.1 nM
[18]
  Kd: 0.83 ± 0.05 nM
[19]
  Kd: 1.44 ± 0.11 nM
[20]
  Kd: 0.99 ± 0.1 nM
[21]
  Kd: 0.71 ± 0.05 nM
[22]
  Kd: 0.37 ± 0.03 nM
[23]; 5 of the 21 G4s, read-out: Kd to 5 G4s
  Kd: 1 to 3 nM
[23]; 16 of the 21 G4s
  Kd to 16 G4s: sub-nM
[23]; range over the 21 G4s, read-out: Kd values for these G4s
  Kd: 0.31 to 3.11 nM
[24]
  binding to the non-G4 DNAs or RNAs: no binding
[2]
  discrimination between parallel and nonparallel G4s in binding: almost no discrimination between the parallel and nonparallel G4
[1]; compared among monomer, G4P, triplex, tetrad
  relative affinity with G4s among the proteins: highest affinity
[1]
  binding to G4 DNAs (new slower band): binding ability
